Laboratory results published in publication PMC3240985.

Substrate: O=C(O)[C@@H](COP(=O)(O)O)O[C@H]1O[C@H](CO)[C@@H](O)[C@H](O)[C@H]1O
Test: purified protein
Details: pH 7.5; 37.0 °C

B1: mGpgP (Rv2419c), recombinant GpgP from M. tuberculosis (Mycobacterium tuberculosis H37Rv) (protein)
chain: MRARRLVMLRHGQTDYNVGSRMQGQLDTELSELGRTQAVAAAEVLGKRQPLLIVSSDLRRAYDTAVKLGERTGLVVRVDTRLRETHLGDWQGLTHAQIDADAPGARLAWREDATWAPHGGESRVDVAARSRPLVAELVASEPEWGGADEPDRPVVLVAHGGLIAALSAALLKLPVANWPALGGMGNASWTQLSGHWAPGSDFESIRWRLDVWNASAQVSSDVL
- Km: 350 ± 30 µM
